Source: patent publication US20240376207A1
Where two headings read alike, the source gives them in different places.

Tests used:
Assay in all cases: cell-based or functional assay
[1] = biological target: human PVRIG expressed on cells (human) (UniProt Q6DKI7)
[2] = biological target: human PVRIG expressed on cells (human) (UniProt Q6DKI7); remark: listed apart in the source
[3] = biological target: human PVRIG expressed on cells (human) (UniProt Q6DKI7); remark: listed apart in the source

human PVRIG expressed on cells (human), sequence (Q6DKI7 41-326 limits assumed, form in doubt): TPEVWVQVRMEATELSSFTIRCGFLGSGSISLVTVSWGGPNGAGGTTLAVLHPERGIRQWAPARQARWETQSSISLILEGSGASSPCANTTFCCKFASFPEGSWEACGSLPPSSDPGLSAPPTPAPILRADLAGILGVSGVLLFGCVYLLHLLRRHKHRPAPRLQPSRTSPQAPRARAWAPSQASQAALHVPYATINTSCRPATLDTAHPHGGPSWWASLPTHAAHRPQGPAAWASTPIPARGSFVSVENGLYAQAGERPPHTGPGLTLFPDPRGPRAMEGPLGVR

## IgG4 (control antibody)
[1]
  NK92 killing of K562, killing activity (%), 4 nM antibody (control baseline): 11.2%
  NK92 killing of K562, killing activity (%), 20 nM antibody (control baseline): 11.7%
  NK92 killing of K562, killing activity (%), 100 nM antibody (control baseline): 9.2%
[2]
  MLR IFNγ (pg/mL), 20 nM antibody (control baseline): 74 pg/mL
  MLR IFNγ (pg/mL), 100 nM antibody (control baseline): 89 pg/mL
[3]
  MLR IFNγ (pg/mL), 4 nM antibody (control baseline): 984 pg/mL
  MLR IFNγ (pg/mL), 20 nM antibody (control baseline): 814 pg/mL
  MLR IFNγ (pg/mL), 100 nM antibody (control baseline): 1310 pg/mL
  NK92 killing of K562, killing activity (%), 20 nM antibody (control baseline): 22%
  NK92 killing of K562, killing activity (%), 100 nM antibody (control baseline): 22%
